Data on five molecules can be found in patent publication US20160369010A1 (AstraZeneca / MedImmune, published 2016).

Where a chain is given by its changes, count along the chain named.

Test [1] deals with T1, Recombinant human Avi_PCSK9_Flag_His (human, UniProt Q8NBP7 31-692, biotinylated in the HTRF and LDL-R competition assays).
T1 construct: In-house protein; also called human PCSK9; huPCSK9
Nature of the test: HTRF epitope competition: unlabelled compound titrated against a DyLight 650-labelled anti-PCSK9 antibody for biotinylated human PCSK9; % specific binding [panel B]. In general terms: TR-FRET usually uses a lanthanide donor and a delayed reading to cut background.
Description: (§1) PCSK9 activity of each peptide-antibody fusions was assessed using Homogenous Time Resolved Fluorescence (HTRF) epitope competition assays.
(§2) For the assay all samples and reagents were prepared in assay buffer containing 1X Phosphate Buffered Saline, 0.1% BSA (Sigma A9576) and 0.4M Potassium Fluoride. Test samples of peptide-antibody fusions or control antibodies were prepared in 384 well polypropylene plates by 3-fold serial dilutions. […] Delta F% was then calculated using the following equation.

Test [2] addresses T1, Recombinant human Avi_PCSK9_Flag_His. The test is described as above. This is another data set of the same source.
Description: as §1, §2
The next test has as its target human GLP-1 receptor (human, UniProt P43220 24-463). Description: cell-based or functional assay.
Test [3] concerns the target T1, Recombinant human Avi_PCSK9_Flag_His. Nature of the test: SPR (Biacore 2000). In general terms: In SPR one partner is held on a chip, and binding of the other changes the refractive index at the surface.
Test [4] has as its target T2, Flag/His tagged human CD86 (in-house) (human, UniProt P42081 24-247, limits assumed).
T2 sequence (looked up): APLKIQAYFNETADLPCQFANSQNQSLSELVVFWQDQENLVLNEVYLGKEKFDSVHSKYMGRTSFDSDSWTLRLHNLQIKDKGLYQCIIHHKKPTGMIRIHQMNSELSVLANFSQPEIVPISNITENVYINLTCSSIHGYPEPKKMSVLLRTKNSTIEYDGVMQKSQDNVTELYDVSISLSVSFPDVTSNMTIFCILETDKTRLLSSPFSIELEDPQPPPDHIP
Description: DELFIA TRF, antigen coated at 10 µg/mL.

The target in test [5] is T1, Recombinant human Avi_PCSK9_Flag_His. Description: binding ELISA on coated human PCSK9 (10 ug/mL), single concentration, detection with cryptate labelled Fc specific anti human IgG. On the technique in general: In an ELISA, binding on a coated surface is turned into a signal by an enzyme label.
Test [6] has the same target. Description: HTRF epitope competition: unlabelled compound titrated against a DyLight 650-labelled anti-PCSK9 antibody for biotinylated human PCSK9; % specific binding [panel C].
Description: as §1, §2

Sequence of human GLP-1 receptor (P43220 24-463): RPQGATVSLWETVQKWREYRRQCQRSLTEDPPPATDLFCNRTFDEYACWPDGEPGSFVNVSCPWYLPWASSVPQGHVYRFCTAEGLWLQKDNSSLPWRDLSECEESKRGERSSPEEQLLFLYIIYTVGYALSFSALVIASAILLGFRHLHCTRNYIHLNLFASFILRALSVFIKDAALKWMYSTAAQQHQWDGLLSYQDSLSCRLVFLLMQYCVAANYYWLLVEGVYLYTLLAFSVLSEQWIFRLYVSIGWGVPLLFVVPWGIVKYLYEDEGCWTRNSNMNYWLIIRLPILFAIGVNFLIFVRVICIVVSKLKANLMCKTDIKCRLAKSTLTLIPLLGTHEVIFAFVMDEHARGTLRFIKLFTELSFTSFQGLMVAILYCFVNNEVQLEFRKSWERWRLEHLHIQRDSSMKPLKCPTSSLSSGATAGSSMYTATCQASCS

B1: PC9#2 GLP-1 analogue heavy chain fusion (antibody, IgG1)
VH: HGEGTFTSDVSSYLEEQAAKEFIAWLVKGGGGGGGSGGGGSGGGGSAQVQLVQSGAEVKKPGASVKVSCKASGYTFTSYYMHWVRQAPGQGLEWMGEIHPSGGRTNYNEKFKSRVTMTRDTSTSTVYMELSSLRSEDTAVYYCARERPLYASDLWGQGTTVTVSS
VL: DIQMTQSPSSLSASVGDRVTITCKASQDVHTAVAWYQQKPGKAPKLLIYHASYRYTGVPSRFSGSGSGTDFTFTISSLQPEDIATYYCQQRYSLWRTFGQGTKLEIK
notes: IgG1-TM; descriptive name; also called heavy chain peptide antibody fusion of PC9#2
As for B1, in test [1], the “IC50 (read off the curve)” value is ~700 pM.

B2: PC9#2_GLP-1_VL (antibody, IgG1)
VH: QVQLVQSGAEVKKPGASVKVSCKASGYTFTSYYMHWVRQAPGQGLEWMGEIHPSGGRTNYNEKFKSRVTMTRDTSTSTVYMELSSLRSEDTAVYYCARERPLYASDLWGQGTTVTVSS
VL: HGEGTFTSDVSSYLEEQAAKEFIAWLVKGGGGGGGSGGGGSGGGGSADIQMTQSPSSLSASVGDRVTITCKASQDVHTAVAWYQQKPGKAPKLLIYHASYRYTGVPSRFSGSGSGTDFTFTISSLQPEDIATYYCQQRYSLWRTFGQGTKLEIK
notes: IgG1-TM; also called light chain peptide antibody fusion of PC9#2
Consider B2, for which the “IC50 (read off the curve)” value in test [2] was ~400 pM. Further, the “x change (against GLP1-Fc)” value with human GLP-1 receptor was found to be 2.4 fold. In addition, the “x change of Kd, PC9#2_GLP1 against PC9#2” value in test [3] came to 2.7 fold.

B3: HS9_DSB7_V19A (antibody)
VH: B2 VH with H52S, R57S, N59S, E62Q, K65Q, S66G
VL: HGEGTFTSDLSKQMEEECARLFIEWLKNGGPSSGAPPPGCGGGGGSGGGGSGGGGSADIQMTQSPSSLSASVGDRVTITCQASQDVKTAVAWYQQKPGKAPKLLIYSASYRYTGVPSRFSGSGSGTDFTFTISSLQPEDIATYYCQQRYSLWRTFGQGTKLEIK
Regarding B3, the binding result in test [4] was “no binding (tested: 25 µg/mL)”.

B4: PC9#6_DSB7_V19A (antibody, IgG1)
VH: QVQLVQSGAEVKKPGSSVKVSCKASGGTFNSHAISWVRQAPGQGLEWMGGINPILGIANYAQKFQGRVTITADESTSTAYMELSSLRSEDTAVYYCARHYEIQIGRYGMNVYYLMYRFASWGQGTLVTVSS
VL: HGEGTFTSDLSKQMEEECARLFIEWLKNGGPSSGAPPPGCGGGGGSGGGGSGGGGSADIQMTQSPSSLSASVGDRVTITCRASQGIRSALNWYQQKPGKAPKLLIYNGSTLQSGVPSRFSGSGSGTDFTLTISSLQPEDFAVYYCQQFDGDPTFGQGTKVEIK
notes: IgG1-TM
Regarding B4, the binding result in test [5] is recorded as “no binding (tested: 100 ug/mL)”.

B5: PC9#3 GLP-1 analogue heavy chain fusion (antibody, IgG1)
VH: HGEGTFTSDVSSYLEEQAAKEFIAWLVKGGGGGGGSGGGGSGGGGSAEVQLVESGGGLVQPGGSLRLSCAASGFTFNNYAMNWVRQAPGKGLDWVSTISGSGGTTNYADSVKGRFIISRDSSKHTLYLQMNSLRAEDTAVYYCAKDSNWGNFDLWGRGTLVTVSS
VL: not shown
notes: IgG1-TM; descriptive name; also called heavy chain peptide antibody fusion of PC9#3
As to B5, in test [6], the “IC50 (read off the curve)” value was ~90 pM.
